The DeepSol protein solubility set

Test: soluble on expression in E. coli; label from the status in PepcDB or PDB records

Sequence	soluble on expression in E. coli
MGSDKIHHHHHHMQPHPETTPVTSCTIIDATDRSIRQTLGETSTLARLIWVDAGLASPPLCSGLARCGRCRVRITEAAPAPHEDDREFFSAEDISAGWRLACRHAPAHGMVVHVPLPVMPHRHASRPKHPGPFRLAVDLGTTSLQWSLLAPDGTVAAQGSETNPQMGAGSDVMSRIAMARSDKGRGRLRELVLQALRRIVADVEGTPATADAVPPAGSGDEPTTACGYESRVEELCVAGNTAMTAILADESVEGLASAPYRLEMRGGTALALPGLPPAWIPPLPAPFVGGDLSAGYLAVLTDHAPAFPFVLADLGTNGEFVLALSPERTLVTSVALGPALEGIGLTFGTVAQRGAITSFTLTPGGLVPYVLDGGEADGISGTGYISLVHALLRAGLLDVDGRFIQSPSSPLAARMARSIVSHRGEPCLPLARGLYLAARDIEEILKVKAAFSLAFERLLATAQMPSHALSGIHLAGALGQHALPADLEGLGFIPPGSGGRTRAVGNTSLRGAELLLTSPPLRDTLNTWREGCTVVDLTAAPDFSAAFLRHMHFHF	not soluble
MKMLEQLEKKLGYTFKDKSLLEKALTHVSYSKKEHYETLEFLGDALVNFFIVDLLVQYSPNKREGFLSPLKAYLISEEFFNLLAQKLELHKFIRIKRGKINETIIGDVFEALWAAVYIDSGRDANFTRELFYKLFKEDILSAIKEGRVKKDYKTILQEITQKRWKERPEYRLISVEGPHHKKKFIVEAKIKEYRTLGEGKSKKEAEQRAAEELIKLLEESE	soluble
NTRLLEEIEERRRSERFFHATIDSLTAPVAILNGEGDIVTVNRAWRKFADENGGLHPNHFIGYNYLGLCDNVKGDDAVTASAVARGIRELIAGRINEFHVDYPCHSPDEQRWFQVRVTRLENGSRGRVAVVHENIS	not soluble
MEEDLLGICGFDSSKKYRLEELAKYQSGSCIEFEDDDEMAVDYPCPFCSDDYDLVELCHHIDEEHQLDANNGICPVCSRRVKMHMVDHITTQHRDVFKRLYKDESYSAFSPGTRKYLQSLIDEPLSTNHTSKSVLDPLLSFIYNPPSPKKSKLVQPDSSSEASMEDNSLIRDSTEKDWESPSPLSDTELLEKAKKREFVQGLISSAIFDHIYNF	soluble
MYQEFFTFIPVDIEELDKAFGGGLIRGATISIMYDAFSLGWALGFEMVKNLIRRNSFGVIHNYNLPTIKLISRASFVGLNIQELAKRKEIMILDVFGSKYDVPPYADYVLQVPNPTPETLNPKIESVYENKIFQVAGDRRIVKLVYTLDGVATMFGEEVAIKLLNGELAWLAKMYGKRNVMTILLLNVDMVSKKFIAWTSGVSDIVITFQSLTEEREGELVERMTVIKSLNPEFEPTSYEFRVTATGTGSHALDFRKIENKRDK	soluble
MAELDIGQHCQVQHCRQRDFLPFVCDGCSGIFCLEHRSKDSHGCSEVNVVKERPKTDEHKSY	soluble
GPLGSLPEELVHAGWEKCWSRRENRPYYFNRFTNQSLWEMPVLGQHDVISDP	soluble
KRTWWLWRQTISSSRGNKVVFEVNADSVRYKSGKIDRSLAWSEIDQLEQTDLGFILHLGKQRQYISKSCLNEEVIAFMVEQHAGSKAS	not soluble
MLKQSMHSFVLLYPNVLLEGWNVEKVSERYEGEKWGTFWFQVVTPTGMFRVKEFFLDIMEPVFPDSCISQAKGDCFQYKGLVYWKGINYKGKESYVTSIWKTQVEISVDHGYVNQDEMERFLFELQPVNMELGKTILHTSFHLLSFQAKRSEMGEIGRCREWNAPDDVSYVNLLIHEKLNWKLESVGFGNDETQYVYWDEVNKLYALWVCRHKNKAYYPISSWTMNYGPKQIINGLEFYSHPNRGTVVYEDLGNEQIAYVFRGNPCTNFEQVKELFACL	not soluble
MEKETKEKIEKTVIEILSESDMKEITEFKVRKLASEKLAIDLSEKSHKAFVRSVVEKFLDEERAREYENSQVNKEEEDGDKDCGKGNKEFDDDGDLIICRLSDKRRVTIQEFKGKSLVSIREYYKKDGKELPTSKGISLTDEQWSTFKKNMPAIENAVKKMESRV	soluble
MVSKELVVCHLYGNLLNTYGDNGNLLMLKYLTEKMGVTFRSEIISIYEPFDPEKYDLVFVGGGQDFEQLIISEDIQNKKEALTSYIENDGVLLAICGGYQLLGHYYVGAQGEKIKGIGALDHYTLSQDNNRFIGDIEIYNEEFDETYYGFENHNGMTFLGEGERPLGTVKQGKGNNGQDNGEGVVYKNVFGSYFHGPILARNKNLGIRLIRTALEKKYGEPIAIPETLYK	not soluble
MEEMMMNDPSAMVIYEEEVTTAPNLPCSLIQQRSWDEEKPIGYELTNTKCYKTPNGVQKTATIQREQLSTSKDFGEQQIVEMDGEFSIEGTDMHAIPCTSSSMQPSTSSNPSSGEHQPVPLRRMAIKIGQRVLRFKVISAEEAPEAPLDTQDSWINDPKPVTTPKALAGLYRCTNCKTYFGNKEVYQRHIQEVHGDARPFRCFNCGMRFANKTSMTHHLKDHSLLKPMFSCDYCPRIFSKLESKTRHHKMHFTRSTCQTCMRFFTTEDALRHHQSTAHPATFDSGPPPEDLLPNGKSARYSCSYCNLRFHFKKDMLVHERIHTGEKPYSCGYCMKSFAQSQALTAHIRTHTKELPYGCGKCDKRFRDNSCLRKHELAAHTDEPIVRPISVAYSNQVQKQMQRQRENRRKQELLIAERHPYRI	not soluble
MRGSHHHHHHGSEEASSTGRNFNVEKINGEWHTIILASDKREKIEDNGNFRLFLEQIHVLEKSLVLKFHGRVRLLNNWDCSELSMVADKTEKAGEYSVTYDGFNTFTIPKTDYDNFLMAHLINEKDGETFQLMGLYGREPDLSSDIKERFAQLCEEHGILRENIIDLSNANRCLQARE	soluble
GPGSMRPSRKRQARRQHPWQQRSVAHKAQRAPSSGHGASGVEHLPRDAVVHVAPRQQHRPVGQAHRRIKRHRVVLRQQKVVPHKRHSRARHAHSPTHRHRVLAQQEVAVNKRHHGAATGRNTALHRHAQPQRRLHRQPVHVERTARRQRHAAN	soluble
MPNYPFPILWLPPKPLGHLLRNMDFRNLIIFSLTSKPAKWLTELLNMDAPMISVHVDHQINIIVSSVKSVTYHASNGSLRESRGKIDRQINFPGSLKQFVEHLLHIFKEHKIDDLEIMCNSVYQYKPDIQALKGIKMRTLKLRYQESILKMFGTSADRIEFSTIKSAELENSKDILIQNFDYLKFDFEGSLTADNLIGINGKVVNIWAADIEMKDVNIFLKHWLKGSNPRLEKLILKTYRLDTDGNSVEDSVADLFRDLDCESIAESQFEILRDDESIAKISILEHGYWYNKIHCYFSLNEAMNLYTTYFWDIVHLQEKILH	not soluble
MGSDKIHHHHHHMNITPKSIIGDIKKKNGNINRVIFTGCGASMADLYPGYYFISHESKHLLSSIMQANEFNYDTPKDVNENTIVITASLGGSTPESVEATKHARELGAHVVTLSHVPNSAIINEAEYSLVHGFEEDYAHKTEKMTLALQLAIEIVNQFEGYDYYADAQKAFEGLFNLINQEANMVAPAAEEFVTKYKDENTIYVLGSGASADVAYSTASFLFMEMQWISSPTIHSGEFFHGPFELALKDTPYLLFMSDGNTRHLDARAMAFLQRFDTKLTVIDAKDHGLASIASSNVIDYFNPMLITGVMRVYAEKLAEARQHPLTQRRYMWKLENY	not soluble
MSLSDRWDQTGLKTRVDGVLRSFLDEEAAHLAAVDAALAPVADQLRKAAGHGKRLRAAFCYWGWRAAGQPESDALVRAAASMELVHAAAVVHDDLIDDSRLRHGLPTAHVALEAVLARDGRPDARTAARSLAMLVGDQLMVLAGLLFTTSGLPAAYLARARDLWAVLARELVAGECLEILHTGGPPDTGTSLKVVRYKTAKYTVEHPLLIGGLLAGAAPALRDTYRAYALPLGEAFQLRDDLLGLFGDPERTGKASLDDLRAHRPTALLAETWKAADASQRQWLRRLLGRDDLDATHLHDVRRLMRELNAPQRVEQMIADRVERATRALDGAGTPPHARRALRELAQQATDRTHEGHHHHHH	soluble
ADPWQECMDYAVTLARQAGEVVCEAIKNEMNVMLKSSPVDLVTATDQKVEKMLISSIKEKYPSHSFIGEESVAAGEKSILTDNPTWIIDPIDGTTNFVHRFPFVAVSIGFAVNKKIEFGVVYSCVEGKMYTARKGKGAFCNGQKLQVSQQEDITKSLLVTELGSSRTPETVRMVLSNMEKLFCIPVHGIRSVGTAAVNMCLVATGGADAYYEMGIHCWDVAGAGIIVTEAGGVLMDVTGGPFDLMSRRVIAANNRILAERIAKEIQVIPLQRDDED	soluble
MKLARFLAKGRVHQGVYREGLLLDEAGEAHRPEDVTWLLPFTPGKILGVALNYADHAEELGLSRPEEPALFWKPNTSLLPHKGVVLYPKGARFVHYEVELAVVVGRPMKRVRAKDALDYVLGYTIANDLVARDYVTNTFRPPIRAKGRDTFLPLGPFLVVEEVEDPQDLWLRAYVNGELRQEGHTSRMLYSVAELLEFISEFMTLEPYDVLLTGTPKGISQVRPGDVMRLEIEGLGALENPIEEEP	soluble
TALIASGLAPQPFYFYGFLPRQNKERTQAIEKLAAREETWILYESPHRLKETLKAIIKITGNDRKMVLCRELTKRFEEFLRGTVEDALNWATDEEVRGEFCIIIEGNANP	not soluble
SDVLASYSIFQELQLVHDTGYFSALPSLEETWQQTCLELERYLQTEPRRISETFGEDLDCFLHASPPPCIEESFRRLDPLLLPVEAAICEKSSAVDILLSRDKLLSETCLSLQPASSSLDSYTAVNQAQLNAVTSLTPPSSPELSRHLVKTSQTLSAVDGTVTLKLVAKKAALSSVKVRSLISAHGRDVSGVLHEAMSSRGTTGNTQVQSPSNATTATGVFPGLTILPST	soluble
MRFTISAAKPEDCKDIERMIMELAVYENMPDQVKISHKELERDGFGPNPFYHCLVAEVPEEHKSKDGNTTVGYVIFFYTYSTWKGRTVYMEDLYVMPEFRGNGIGKALLGAVAKEAKDQLCSRLQFSVLDWNKPSLDFYMAKGAEDLTAKEGWHFLRFHGMALDNLAQEAP	not soluble
MAKNIPFKLILEKAKDYQADMTRFLRDMVAIPSESCDEKRVVHRIKEEMEKVGFDKVEIDPMGNVLGYIGHGPRLVAMDAHIDTVGIGNIKNWDFDPYEGMETDELIGGRGTSDQEGGMASMVYAGKIIKDLGLEDEYTLLVTGTVQEEDCDGLCWQYIIEQSGIRPEFVVSTEPTDCQVYRGQRGRMEIRIDVQGVSCHGSAPERGDNAIFKMGPILGELQELSQRLGYDEFLGKGTLTVSEIFFTSPSRCAVADSCAVSIDRRLTWGETWEGALDEIRALPAVQKANAVVSMYNYDRPSWTGLVYPTECYFPTWKVEEDHFTVKALVNAYEGLFGKAPVVDKWTFSTNGVSIMGRHGIPVIGFGPGKEPEAHAPNEKTWKSHLVTCAAMYAAIPLSWLATE	soluble
MLHITAAKARAGGQIGGVFCLAQCSLNVLVSGMQTQPLPPLISARPVGRGARSNDAGRFEPLERVAEHDGWEREEELPPLRTQVSLETARSLISYNRSPDLPFDRSINPYRGCEHGCSYCFARPSHAYLGLSPGLDFETRLVARPNAAEVLRAELSARRYKVAPIAIGTNTDPYQPLEKTHAITRACLQVLAEFNHPVAIVTRGALIERDLDILAPMAARGLVRVGISLTTLDAALARRMEPRAPSPKRRLAMIRALNGAGVPVRVMTSPLIPGLTDHELESLLAAGAEAGADTASWIMLRLPREVSPLWQEWLAEHAPARAAKVMARLREMHGGRDYDPRWGHRMRGEGEYAQMIAKRFRAACKRIGLAQEAPALRCDLFRVPPQPGDQLSLF	not soluble
